Test results from publication PMC7538599.

Target: GltPh, archaeal homolog of excitatory amino acid transporters from Pyrococcus horikoshii (Pyrococcus horikoshii) (UniProt O59010)
Assay: high-speed atomic force microscopy (HS-AFM) imaging; purified GltPh reconstituted in DOPC/DOPE/DOPS 8:1:1 membranes, spread on mica, imaged in buffer solution in amplitude modulation mode; unlabeled protein

stoichiometry N: 3
Substance: GltPh, archaeal homolog of excitatory amino acid transporters from Pyrococcus horikoshii (from UniProt O59010 1-425) (natural protein)
